B1: Parm1: α-1,3-fucosyltransferase from Parabacteroides merdae, GenBank WP_129943149.1, SEQ ID NO: 2 (protein, listed as Parabacteroides merdae)
chain: MKHETPVLSFIIPIYNVELYLPACLESVLHLPLTNFEIILIDDGSTDNSGRIADKYAENYSHIHVIHQTNAGLSATRNRGVELAEGNYIAFLDSDDWLIGDQIVDIYLQTSQANADMGMGNSLFCYPDGSNGNPFAPIPQNLIGQTIDGKYCFTELMKQNVYPPMVYNYIYRREWLLSHQLRFESVLHEDELWTPIALCYARRIVVTNIDFYGYRQREGSIMTSLRREKRIHDLFFIADRLIRLAENYRFDSDDKNLKSQLYVRSYLLYKIAFSSLAHIHDTRFILPTHHLYQLFAIKNKLTADARNTCINQYKTAKQGLKSYLKWRNSYWIRKLTYEISPETKLILIFNTMWNKPLDIPIQKIPANCIITTDRRFLSTADFVVFHLPDLSNELEEDLDKPEGQKWVAWSLECEENYHFLKDPEFMEVFDYKMSYHQDADIVYPYYRYEYRKELILMPEFSFHEKKDICMMISSPFNQSGRQEYLQELMQYISIDSYGKLFNNCKLEKDSGQDSKMELYRQYKFVIAFENSRANDYVTEKFYDPLLAGAVPIYLGAPNIETFAPGENCSVDIRNFSSPKELAAFLIEACKNEKIYNKFLQWKKEPLKPEFMKKIEAQRVHPFIRLCHLLHLPPPTSRYDGARKKNAHRS
B2: Med1: α-1,3-fucosyltransferase from Mediterranea sp. An20, GenBank WP_087337236.1, SEQ ID NO: 4 (protein, listed as Mediterranea sp.)
chain: MRKILILFYNKLWGVSWENEACASIPDGFELTDDRSRMAEADAVVFHLPDLARCMDGEEIEKRDGQLWVTWNLECDDNYPWVEAPEIRDLFDLRIGYRQQDDVWYPYFSFIRAEAFTRLPPRRPPLDKACLFVSSPFNRSHRFEFLRELMRHTEVDSFGRMLHNKDLPADEGRKTLMEKIADYKFVIGVENALARDYVTEKFFQPLLAGTVPVYRGAPNVEEFAPGRHCFVDARAFRSPADLAGFMNRCYEHPALYDELTAWRTQPLQPGFVQKLEQVKEHPFVRLCRVVEEKIRRIEYKIT
B3: Hacin2: α-1,3-fucosyltransferase from Helicobacter acinonychis, GenBank WP_104687422.1, SEQ ID NO: 5 (protein, listed as Helicobacter acinonychis)
chain: MFQPLLDAYTDSAYSDASDHKPPLNIAIANGWGGTKGFEASVLYFILSWRYKIALHENPNKPADLVFSNPLGQARKILSYQNTKRVFYTGENEVPNFNLFDYAIGFDGLDFKERYLRMPLYYASLHDKAQSVNDTTAPYTLKSDSLYALKKPAHCFKEDHPKLCSVVKGESDPFKRGFASFVAGNANAPMRNAFCEALNSVEPVTGGGAVKNTLGYNVTNKSEFLSQYKFNLCFENAQGYGYVTEKIIDAYFSHTIPIYWGSPSVAQDFNPKSFVNVHDFKDFDGAIDYIRYLHTHENAYLDMLYENPLNVIDGKACFYQDLSFKKILDFFKTILENDTIYHNNPFVFDRDLHEPLVSIDNLRADLLLLKDNYDGLKTDYDGLKTDYDGLKTDYDGLKTDYDGLKTDYDGLKTDYDGLKTDYDHLFKSALPLLELSQTTSFKIYHKIYQKTLPLLRMARKLVKK
B4: PglpF: promoter sequence, SEQ ID NO: 28; positive reference of the LacZ assay (nucleic acid, listed as Escherichia coli)
DNA: GCGGCACGCCTTGCAGATTACGGTTTGCCACACTTTTCATCCTTCTCCTGGTGACATAATCCACATCAATCGAAAATGTTAATAAATTTGTTGCGCGAATGATCTAACAAACATGCATCATGTACAATCAGATGGAATAAATGGCGCGATAACGCTCATTTTATGACGAGGCACACACATTTTAAGTTCGATATTTCTCGTTTTTGCTCGTTAACGATAAGTTTACAGCATGCCTACAAGCATCGTGGAGGTCCGTGACTTTCACGCATACAACAAACATTAACCAAGGAGGAAACAGCT
B5: Plac_wt: promoter sequence, SEQ ID NO: 37 (nucleic acid, listed as Escherichia coli)
DNA: TGTGAGTTAGCTCACTCATTAGGCACCCCAGGCTTTACACTTTATGCTTCCGGCTCGTATGTTGTGTGGAATTGTGAGCGGATAACAATTTCACACAGGAAACAGCT
modifications: expressed or natural sequence
B6: Hpull1: α-1,3-fucosyltransferase from Helicobacter pullorum, GenBank WP_065831246.1, SEQ ID NO: 3 (protein, listed as Helicobacter pullorum)
chain: MRKDLVIIRVDGGIASQISFVALGLEFESRGYKVKYDLSWFDEFGNGICNEQNGYDRSYNIVFDIPKAFPDIKCEIASRDEIEIYRKKYFVDNEEVIELKPPLYVGGYLGRHFNFKYRDFFAKHFNPKEIQESDSECKILLDNILSNHSCGVHIRRGDLSKEHVVYGKPLSVEYFLKNIQLVLQIEPKSKFYFFGDDLEWVKKKVIPSLNSIEYEICNVNSVEKGYLDLYLLSRCKIIIASQGSMGKFAKMLASDTETLLIAPNKNAPMENMIMVNWVDSYESSGEKQIQKPLSWRNKIRLKIYKKFRNKLLQKGIL

How the values were obtained:
LNnT = assay: Deep well assay: HMO profile of LNnT-producing strains expressing α-1,3-fucosyltransferases (HPLC); format: cell-based, Escherichia coli
Experimental: Deep Well Assays in the current examples were performed as originally described to Lv et al (Bioprocess Biosyst Eng 20 (2016) 39:1737-1747) and optimized for the purposes of the current invention. More specifically, the strains disclosed in the present example were screened in 96 deep well plates using a 4-day protocol. During the first 24 hours, precultures were grown to high densities (OD600 up to 5) and subsequently transferred to a medium that allowed induction of gene expression and product formation.
More specifically, during day 1, fresh precultures were prepared using a basal minimal medium (BMM) (pH 7.0) supplemented with magnesium sulphate (0.12 g/L), thiamine (0.004 g/L) and glucose (5.5 g/L). Basal Minimal medium had the following composition: NaOH (1 g/L), KOH (2.5 g/L), KHzPO4 (7 g/L), NH&HzPO4 (7 g/L), Citric acid (0.5 g/l), trace mineral solution (5 mL/L). The trace mineral stock solution contained; ZnSO~*7H~O 0.82 g/L, Citric acid 20 g/L, Mn$04*H&O 0.98 g/L, FeSO4*7H&O 3.925 g/L, CuSO4*5H~O 0.2 g/L. The pH of the Basal Minimal Medium was adjusted to 7.0 with 5 N NaOH and autoclaved. The precultures were incubated for 24 hours at 34° C. and 1000 rpm shaking and then further transferred to 0.75 ml of a new BMM (pH 7,5) to start the main culture. The new BMM was supplemented with magnesium sulphate (0.12 g/L), thiamine (0.02 g/L), a bolus of glucose solution (0.1-0.15 g/L) and a bolus of lactose solution (5-20 g/L) Moreover, a 20% stock solution of sucrose (40-45 g/L) or maltodextrin (19-20 g/L) was provided as carbon source, accompanied by the addition of a specific hydrolytic enzyme, sucrose hydrolase or glycoamylase, respectively, so that glucose was released at a rate suitable for carbon-limited growth and similar to that of a typical fed-batch fermentation process. The main cultures were incubated for 72 hours at 28° C. and 1000 rpm shaking. For the analysis of total broth, the 96 well plates were boiled at 100° C., subsequently centrifuged, and finally the supernatants were analysed by HPLC.
Genetically modified cells expressing individual α-1,3-fucosyltransferase enzymes were screened for their ability to produce the fucosylated HMO LNFP-III.
Genetically modified strains expressing the six individual α-1,3-fucosyltransferases (table 5) were generated as described in the “Method” section. The cells were screened in the deep well assay setup as described in the “Method” section.
The molar content of individual HMOs produced by the strains was measured by HPLC.
The results of the LNFP-III producing cells are shown in table 7 as the fraction of the total molar HMO content (in percentage, %) produced by each strain.

β-galactosidase activity [1] = assay: LacZ assay of promoter strength; format: cell-based; details: LacZ assay at 30° C.; Plac induced with IPTG
Experimental: Increasing the promoter strength driving the expression of the desired enzyme may be one way of doing this. The strength of a promoter can be assessed using a lacZ enzyme assay where β-galactosidase activity is assayed as described previously (see e.g., Miller J. H. Experiments in molecular genetics, Cold spring Harbor Laboratory Press, NY, 1972). Briefly the cells are diluted in Z-buffer and permeabilized with sodium dodecyl sulfate (0.1%) and chloroform. The LacZ assay is performed at 30° C. Samples are preheated, the assay initiated by addition of 200 μl ortho-nitro-phenyl-β-galactosidase (4 mg/ml) and stopped by addition of 500 μl of 1 M Na2CO3 when the sample had turned slightly yellow. The release of ortho-nitrophenol is subsequently determined as the change in optical density at 420 nm. The specific activities are reported in Miller Units (MU) [A420/(min*ml*A600)]. A regulatory element with an activity above 10,000 MU is considered strong and a regulatory element with an activity below 3,000 MU is considered weak, what is in between has intermediate strength. An example of a strong regulatory element is the PglpF promoter with an activity of approximately 14.000 MU and an example of a weak promoter is Plac which when induced with IPTG has an activity of approximately 2300 MU. […]

β-galactosidase activity [2] = details: LacZ assay, cited from earlier work; for % Activity relative to PglpF: PglpF as positive reference, a range indicates results from multiple assays
[3] = two genomic copies and high copy plasmid (pUC57-Parm1-PglpF)

| Molecule | LNDFH-III, % of total HMO molar (mM) content produced by each strain (LNnT; FT copy nr as in table 7) | promoter activity in Miller Units (β-galactosidase activity [1]) | % Activity relative to PglpF (β-galactosidase activity [2]) | Strength (β-galactosidase activity [2]) | further results |
| --- | --- | --- | --- | --- | --- |
| B1 |  |  |  |  | LNnT, % of total HMO molar (mM) content produced by each strain (LNnT; FT copy nr as in table 7): 21%; amount of LNnT produced, % of the total HMO content (LNnT; two genomic copies): 14%; relative amount of LNFP-III produced, % of the total HMO content (LNnT; two genomic copies): 81%; amount of LNnT produced, % of the total HMO content (LNnT; [3]): 5%; relative amount of LNFP-III produced, % of the total HMO content (LNnT; [3]): 86% |
| B2 | do not produce any |  |  |  |  |
| B3 | do not produce any |  |  |  |  |
| B4 |  | approximately 14.000 MU | 100% | high (A regulatory element with an activity above 10,000 MU is considered strong) |  |
| B5 |  | approximately 2300 MU | 15-28% | low (a regulatory element with an activity below 3,000 MU is considered weak) |  |
| B6 | do not produce any |  |  |  |  |
